# According to patent US20260167721A1 (ABLEXIS, published 2026):
# Experiments:
# [1] = biological target: T1, CD3 on human donor PBMC / Pan T effector cells (human, UniProt P07766 23-207; P09693 23-182; P04234 22-171; P20963 22-164); experiment: cell-based or functional assay
# [2] = biological target: T1, CD3 on human donor PBMC / Pan T …; experiment: cell-based or functional assay; remark: listed apart in the source
# T1 sequence (P07766 23-207, chain 1 of 4): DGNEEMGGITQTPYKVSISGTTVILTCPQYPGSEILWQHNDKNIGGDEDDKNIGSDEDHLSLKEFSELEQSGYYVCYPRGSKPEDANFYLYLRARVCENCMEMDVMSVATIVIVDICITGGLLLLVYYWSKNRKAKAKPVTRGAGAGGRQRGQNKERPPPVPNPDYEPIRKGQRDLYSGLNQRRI
# T1 sequence (P09693 23-182, chain 2 of 4): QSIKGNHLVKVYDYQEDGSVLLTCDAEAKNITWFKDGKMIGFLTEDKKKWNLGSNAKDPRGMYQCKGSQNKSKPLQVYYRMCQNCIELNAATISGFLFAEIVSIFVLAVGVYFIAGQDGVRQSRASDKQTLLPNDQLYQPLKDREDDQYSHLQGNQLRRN
# T1 sequence (P04234 22-171, chain 3 of 4): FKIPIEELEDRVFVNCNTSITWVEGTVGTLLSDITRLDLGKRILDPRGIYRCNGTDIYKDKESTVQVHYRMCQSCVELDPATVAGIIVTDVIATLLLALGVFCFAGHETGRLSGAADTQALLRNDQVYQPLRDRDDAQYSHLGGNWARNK
# T1 sequence (P20963 22-164, chain 4 of 4): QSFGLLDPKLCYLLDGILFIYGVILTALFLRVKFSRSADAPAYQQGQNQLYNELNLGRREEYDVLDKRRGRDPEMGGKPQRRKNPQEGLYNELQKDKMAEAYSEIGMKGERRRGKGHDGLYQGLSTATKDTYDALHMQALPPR
binder,measurement,setting,value
CD3 × CD33-BspAb71 (bispecific antibody) chain 1: EVQLVESGGGLVKPGGSLRLSCAASGFTFSSYSMNWVRQAPGKCLEWVSSISRSSSYIYYADSVKGRFTLSRDNAKNSLYLQMNSLRGEDTAIYYCGRDGKGAIFLDYWGQGTLVTVSSGGGGSGGGGSGGGGSGGGGSSYELTQPPSVSVSPGQTARITCSGDALPKKYAYWYQQKSGQAPVLVIYEDSKRPSGIPERFSGSSSGTMATLTISGAQVEDEADYYCYSTHSSGNHRVFGCGTKLTVLDKTHTCPPCPAPEFEGGPSVFLFPPKPKDTLMISRTPEVTCVVVDVSHEDPEVKFNWYVDGVEVHNAKTKPREEQYNSTYRVVSVLTVLHQDWLNGKEYKCKVSNKALPASIEKTISKAKGQPREPQVYTLPPCREEMTKNQVSLWCLVKGFYPSDIAVEWESNGQPENNYKTTPPVLDSDGSFFLYSKLTVDKSRWQQGNVFSCSVMHEALHNHYTQKSLSLSPGK chain 2: EVQLVQSGAEVKKPGSSVKVSCKASGYTITDSNIHWVRQAPGQSLEWIGYIYPYNGGTDYNQKFKNRATLTVDNPTNTAYMELSSLRSEDTAFYYCVNGNPWLAYWGQGTLVTVSSASTKGPSVFPLAPSSKSTSGGTAALGCLVKDYFPEPVTVSWNSGALTSGVHTFPAVLQSSGLYSLSSVVTVPSSSLGTQTYICNVNHKPSNTKVDKRVEPKSCDKTHTCPPCPAPEFEGGPSVFLFPPKPKDTLMISRTPEVTCVVVDVSHEDPEVKFNWYVDGVEVHNAKTKPREEQYNSTYRVVSVLTVLHQDWLNGKEYKCKVSNKALPASIEKTISKAKGQPREPQVCTLPPSREEMTKNQVSLSCAVKGFYPSDIAVEWESNGQPENNYKTTPPVLDSDGSFFLVSKLTVDKSRWQQGNVFSCSVMHEALHNRFTQKSLSLSPGK chain 3: DIQLTQSPSTLSASVGDRVTITCRASESLDNYGIRFLTWFQQKPGKAPKLLMYAASNQGSGVPSRFSGSGSGTEFTLTISSLQPDDFATYYCQQTKEVPWSFGQGTKVEVKRTVAAPSVFIFPPSDEQLKSGTASVVCLLNNFYPREAKVQWKVDNALQSGNSQESVTEQDSKDSTYSLSSTLTLSKADYEKHKVYACEVTHQGLSSPVTKSFNRGEC,Cytokine Release Assay (IL2) Donor 0 EC50,[1],3.03 nM
same,Cytokine Release Assay (IL2) Donor 0 gMFI max,[1],65500 gMFI
same,Cytokine Release Assay (IL2) Donor 1 gMFI max,[1],24400 gMFI
same,Cytokine Release Assay (IL2) Donor 2 EC50,[1],0.0725 nM
same,Cytokine Release Assay (IL2) Donor 2 gMFI max,[1],30900 gMFI
same,Cytokine Release Assay (IL2) Donor 3 EC50,[1],2.16 nM
same,Cytokine Release Assay (IL2) Donor 3 gMFI max,[1],127000 gMFI
same,Cytokine Release Assay (TNFα) Donor 0 gMFI max,[2],44100 gMFI
same,Cytokine Release Assay (TNFα) Donor 1 gMFI max,[2],5470 gMFI
same,Cytokine Release Assay (TNFα) Donor 2 EC50,[2],0.396 nM
same,Cytokine Release Assay (TNFα) Donor 2 gMFI max,[2],16700 gMFI
same,Cytokine Release Assay (TNFα) Donor 3 gMFI max,[2],28200 gMFI
CD3 × CD33-BspAb116 (bispecific antibody) chain 1: NFMLTQPHSVSESPGKTVTISCTRSSGSIASNYVQWYQQRPGSSPTTVIYEDNQRPSGVPDRFSGSIDSSSNSASLTISGLKTEDEAYYYCQSFDSSNRVFGCGTKLTVLGGGGSGGGGSGGGGSGGGGSQVQLQESGPGLVKPSQTLSLTCTVSGGSISSGGYYWSWIRQHPGKCLEWIGYIYYSGSTYYNPSLKSRVTISVDTSKDQFSLKLSSVTAADTAVYYCARERKTSLPFDIWGQGTMVTVSSDKTHTCPPCPAPEFEGGPSVFLFPPKPKDTLMISRTPEVTCVVVDVSHEDPEVKFNWYVDGVEVHNAKTKPREEQYNSTYRVVSVLTVLHQDWLNGKEYKCKVSNKALPASIEKTISKAKGQPREPQVYTLPPCREEMTKNQVSLWCLVKGFYPSDIAVEWESNGQPENNYKTTPPVLDSDGSFFLYSKLTVDKSRWQQGNVFSCSVMHEALHNHYTQKSLSLSPGK chain 2: EVQLVQSGAEVKKPGSSVKVSCKASGYTITDSNIHWVRQAPGQSLEWIGYIYPYNGGTDYNQKFKNRATLTVDNPTNTAYMELSSLRSEDTAFYYCVNGNPWLAYWGQGTLVTVSSASTKGPSVFPLAPSSKSTSGGTAALGCLVKDYFPEPVTVSWNSGALTSGVHTFPAVLQSSGLYSLSSVVTVPSSSLGTQTYICNVNHKPSNTKVDKRVEPKSCDKTHTCPPCPAPEFEGGPSVFLFPPKPKDTLMISRTPEVTCVVVDVSHEDPEVKFNWYVDGVEVHNAKTKPREEQYNSTYRVVSVLTVLHQDWLNGKEYKCKVSNKALPASIEKTISKAKGQPREPQVCTLPPSREEMTKNQVSLSCAVKGFYPSDIAVEWESNGQPENNYKTTPPVLDSDGSFFLVSKLTVDKSRWQQGNVFSCSVMHEALHNRFTQKSLSLSPGK chain 3: DIQLTQSPSTLSASVGDRVTITCRASESLDNYGIRFLTWFQQKPGKAPKLLMYAASNQGSGVPSRFSGSGSGTEFTLTISSLQPDDFATYYCQQTKEVPWSFGQGTKVEVKRTVAAPSVFIFPPSDEQLKSGTASVVCLLNNFYPREAKVQWKVDNALQSGNSQESVTEQDSKDSTYSLSSTLTLSKADYEKHKVYACEVTHQGLSSPVTKSFNRGEC,Cytokine Release Assay (IL2) Donor 0 EC50,[1],0.45 nM
same,Cytokine Release Assay (IL2) Donor 0 gMFI max,[1],23200 gMFI
same,Cytokine Release Assay (IL2) Donor 1 EC50,[1],0.384 nM
same,Cytokine Release Assay (IL2) Donor 1 gMFI max,[1],19000 gMFI
same,Cytokine Release Assay (IL2) Donor 2 EC50,[1],0.0909 nM
same,Cytokine Release Assay (IL2) Donor 2 gMFI max,[1],16800 gMFI
same,Cytokine Release Assay (IL2) Donor 3 EC50,[1],0.198 nM
same,Cytokine Release Assay (IL2) Donor 3 gMFI max,[1],27200 gMFI
same,Cytokine Release Assay (TNFα) Donor 0 EC50,[2],0.61 nM
same,Cytokine Release Assay (TNFα) Donor 0 gMFI max,[2],18000 gMFI
same,Cytokine Release Assay (TNFα) Donor 1 gMFI max,[2],4930 gMFI
same,Cytokine Release Assay (TNFα) Donor 2 EC50,[2],0.155 nM
same,Cytokine Release Assay (TNFα) Donor 2 gMFI max,[2],9080 gMFI
same,Cytokine Release Assay (TNFα) Donor 3 EC50,[2],0.685 nM
same,Cytokine Release Assay (TNFα) Donor 3 gMFI max,[2],13600 gMFI
CD3 × CD33-BspAb37 (bispecific antibody) chain 1: not shown chain 2: EVQLVQSGAEVKKPGSSVKVSCKASGYTITDSNIHWVRQAPGQSLEWIGYIYPYNGGTDYNQKFKNRATLTVDNPTNTAYMELSSLRSEDTAFYYCVNGNPWLAYWGQGTLVTVSSASTKGPSVFPLAPSSKSTSGGTAALGCLVKDYFPEPVTVSWNSGALTSGVHTFPAVLQSSGLYSLSSVVTVPSSSLGTQTYICNVNHKPSNTKVDKRVEPKSCDKTHTCPPCPAPEFEGGPSVFLFPPKPKDTLMISRTPEVTCVVVDVSHEDPEVKFNWYVDGVEVHNAKTKPREEQYNSTYRVVSVLTVLHQDWLNGKEYKCKVSNKALPASIEKTISKAKGQPREPQVCTLPPSREEMTKNQVSLSCAVKGFYPSDIAVEWESNGQPENNYKTTPPVLDSDGSFFLVSKLTVDKSRWQQGNVFSCSVMHEALHNRFTQKSLSLSPGK chain 3: DIQLTQSPSTLSASVGDRVTITCRASESLDNYGIRFLTWFQQKPGKAPKLLMYAASNQGSGVPSRFSGSGSGTEFTLTISSLQPDDFATYYCQQTKEVPWSFGQGTKVEVKRTVAAPSVFIFPPSDEQLKSGTASVVCLLNNFYPREAKVQWKVDNALQSGNSQESVTEQDSKDSTYSLSSTLTLSKADYEKHKVYACEVTHQGLSSPVTKSFNRGEC,Cytokine Release Assay (IL2) Donor 0 EC50,[1],0.18 nM
same,Cytokine Release Assay (IL2) Donor 0 gMFI max,[1],69200 gMFI
same,Cytokine Release Assay (IL2) Donor 1 EC50,[1],0.437 nM
same,Cytokine Release Assay (IL2) Donor 1 gMFI max,[1],26800 gMFI
same,Cytokine Release Assay (IL2) Donor 2 EC50,[1],0.141 nM
same,Cytokine Release Assay (IL2) Donor 2 gMFI max,[1],34800 gMFI
same,Cytokine Release Assay (IL2) Donor 3 EC50,[1],0.181 nM
same,Cytokine Release Assay (IL2) Donor 3 gMFI max,[1],104000 gMFI
same,Cytokine Release Assay (TNFα) Donor 0 EC50,[2],0.165 nM
same,Cytokine Release Assay (TNFα) Donor 0 gMFI max,[2],48300 gMFI
same,Cytokine Release Assay (TNFα) Donor 1 gMFI max,[2],5610 gMFI
same,Cytokine Release Assay (TNFα) Donor 2 EC50,[2],0.0832 nM
same,Cytokine Release Assay (TNFα) Donor 2 gMFI max,[2],15800 gMFI
same,Cytokine Release Assay (TNFα) Donor 3 EC50,[2],0.222 nM
same,Cytokine Release Assay (TNFα) Donor 3 gMFI max,[2],31600 gMFI
